Where two headings read alike, the source gives them in different places.
Assays:
human IL-1beta [1] = target: T1, human IL-1beta (human, UniProt P01584 117-269); assay: cell-based or functional assay
human IL-1beta [2] = target: T1, human IL-1beta; assay: cell-based or functional assay; remark: listed apart in the source
human IL-1beta [3] = target: T1, human IL-1beta; assay: cell-based or functional assay; remark: listed apart in the source
human IL-1beta [4] = target: T1, human IL-1beta; assay: SPR (BIAcore); antibody captured by anti-Fc, IL-1beta injected
Procedure: (§1) All experiments were performed at 25° C. using HBS-P (10 mM His, 140 mM NaCl, 0.05% Tween 20 pH 7.4) as running and dilution buffer. Anti-human or anti-mouse Fc antibodies were immobilized on a Series S CM5 Sensor Chip (GE Healthcare) using standard amine coupling chemistry. […] The dissociation phase was monitored for 600 sec by washing with running buffer. […] The surface was regenerated by injecting 3 M MgCl2 (for anti-human Fc antibody) or 10 mM Glycine pH 1.5 (for anti-mouse Fc antibody) for 60 sec at a flow rate of 5 μl/min. Bulk refractive index differences were corrected by subtracting the response obtained from a mock surface. Blank injections were subtracted (double referencing). The derived curves were fitted to a 1:1 Langmuir binding model using the BIAevaluation software.

cynomolgus IL-1beta = cynomolgus IL-1beta (cynomolgus, UniProt P79182 117-268); assay: as above
Procedure: as §1

human IL-1beta [5] = target: T1, human IL-1beta; assay: cell-based or functional assay; remark: listed apart in the source
human IL-1beta [6] = target: T1, human IL-1beta; assay: SPR (BIAcore T200); antibody captured by anti-human Fc, human IL-1beta injected (Example 52); design: t 1/2: unit not given here
human IL-1beta [7] = target: T1, human IL-1beta; assay: SPR (BIAcore); Fab captured by anti-human Fab, IL-1beta injected (Example 55)
Procedure: All experiments were performed at 25° C. using HBS-P (10 mM His, 140 mM NaCl, 0.05% Tween 20 pH 7.4) as running and dilution buffer. Anti-human Fc or anti-human Fab antibodies were immobilized on a Series S CM5 Sensor Chip (GE Healthcare) using standard amine coupling chemistry. […] The dissociation phase was monitored for 600 sec by washing with running buffer. The surface was regenerated by injecting 3 M MgCl2 (for anti-human Fc antibody) or 10 mM Glycine pH 1.5 (for anti-mouse Fc antibody) for 60 sec at a flow rate of 5 μl/min. Bulk refractive index differences were corrected by subtracting the response obtained from a mock surface. Blank injections were subtracted (double referencing). The derived curves were fitted to a 1:1 Langmuir binding model using the BIAevaluation software.

human IL-1beta [8] = target: T1, human IL-1beta; assay: cell-based or functional assay; remark: listed apart in the source

Binder	IC50, inhibition of ICAM-1 expression upon IL-1beta stimulation of HUVEC cells (human IL-1beta [1]) [nM]	IC50, inhibition of ICAM-1 expression upon IL-1beta stimulation of A549 cells (human IL-1beta [2]) [nM]	EC50, reduction of IL-6 expression upon IL-1beta stimulation of A549 cells (human IL-1beta [3]) [nM]	Kd (human IL-1beta [4]) [nM]	koff (human IL-1beta [4]) [s⁻¹]	kon (human IL-1beta [4]) [M⁻¹ s⁻¹]	Kd (cynomolgus IL-1beta) [nM]	koff (cynomolgus IL-1beta) [s⁻¹]	kon (cynomolgus IL-1beta) [M⁻¹ s⁻¹]	IC50, inhibition of proliferation of D10 cells (human IL-1beta [5]) [nM]	Kd (human IL-1beta [6]) [nM]	koff (human IL-1beta [6]) [s⁻¹]	kon (human IL-1beta [6]) [M⁻¹ s⁻¹]	t 1/2 (human IL-1beta [6])	Kd (human IL-1beta [7]) [nM]	koff (human IL-1beta [7]) [s⁻¹]	kon (human IL-1beta [7]) [M⁻¹ s⁻¹]	EC50, reduction of IL-6 expression upon IL-1beta stimulation of A549 cells (human IL-1beta [8]) [µg/mL]
huH34-3 (antibody, V domains shown, VH = 11 and VL = 16 read by analogy with huH34-2) VH: QVQLVQSGAEVKKPGASVKVSCKASGYTFTGYYMHWVRQAPGQGLEWIGYISSYSAFTTYNQKFRGRATFTVDTSISTAYMELSRLRSDDTAVYYCVRSDYYGTSLYWGQGTLVTVSS VL: EIVLTQSPATLSLSPGERATLSCRASSSVSYMHWSQQKPGQAPRLLIYSTSNLASGIPARFSGSGSGTDFTLTISSLEPEDFAVYYCHQWSNYYTFGQGTKLEIK	–	2.23	1.09	0.15	0.000302	1.97e+06	0.22	0.000491	2.21e+06	–	–	–	–	–	–	–	–	–
antibody 0032 (bispecific antibody, V domains shown, CrossMab; only variable domains are tied to it; also called anti-IL-1beta/VEGF antibody) VH 1: EVQLVESGGGLVQPGGSLRLSCAASGYDFTHYGMNWVRQAPGKGLEWVGWINTYTGEPTYAADFKRRFTFSLDTSKSTAYLQMNSLRAEDTAVYYCAKYPYYYGTSHWYFDVWGQGTLVTVSS VL 1: DIQLTQSPSSLSASVGDRVTITCSASQDISNYLNWYQQKPGKAPKVLIYFTSSLHSGVPSRFSGSGSGTDFTLTISSLQPEDFATYYCQQYSTVPWTFGQGTKVEIK VH 2: QVQLVQSGAEVKKPGASVKVSCKASGYTFTGYYMHWVRQAPGQGLEWIGYISSYNAFTTYNQKFRGRATFTVDTSISTAYMELSRLRSDDTAVYYCVRSDYYGTSLYWGQGTLVTVSS VL 2: EIVLTQSPATLSLSPGERATLSCRASSSVSYMHWSQQKPGQAPRLLIYSTSNLASGIPARFSGSGSGTDFTLTISSLEPEDFAVYYCHQWSNYYTFGQGTKLEIK	–	–	–	–	–	–	–	–	–	–	0.12	0.000305	2.49e+06	38	–	–	–	0.0387
huH34-1 (antibody, V domains shown, VH = 01 and VL = 16 read by analogy with huH34-2 (VH 06, VL 16); Humanized) VH: QVQLVQSGAEVKKPGASVKVSCKASGYTFTGYYMHWVRQAPGQGLEWMGYISSYSGFTTYAQKFQGRVTMTRDTSISTAYMELSRLRSDDTAVYYCARSDYYGTSLYWGQGTLVTVSS VL: EIVLTQSPATLSLSPGERATLSCRASSSVSYMHWSQQKPGQAPRLLIYSTSNLASGIPARFSGSGSGTDFTLTISSLEPEDFAVYYCHQWSNYYTFGQGTKLEIK	–	> 7	5.52	1.02	0.00151	1.49e+06	1.31	0.00212	1.61e+06	–	–	–	–	–	–	–	–	–

Other lines, results leading:

IC50, inhibition of ICAM-1 expression upon IL-1beta stimulation of HUVEC cells (human IL-1beta [1]) [nM]	IC50, inhibition of ICAM-1 expression upon IL-1beta stimulation of A549 cells (human IL-1beta [2]) [nM]	EC50, reduction of IL-6 expression upon IL-1beta stimulation of A549 cells (human IL-1beta [3]) [nM]	Kd (human IL-1beta [4]) [nM]	koff (human IL-1beta [4]) [s⁻¹]	kon (human IL-1beta [4]) [M⁻¹ s⁻¹]	Kd (cynomolgus IL-1beta) [nM]	koff (cynomolgus IL-1beta) [s⁻¹]	kon (cynomolgus IL-1beta) [M⁻¹ s⁻¹]	IC50, inhibition of proliferation of D10 cells (human IL-1beta [5]) [nM]	Kd (human IL-1beta [6]) [nM]	koff (human IL-1beta [6]) [s⁻¹]	kon (human IL-1beta [6]) [M⁻¹ s⁻¹]	t 1/2 (human IL-1beta [6])	Kd (human IL-1beta [7]) [nM]	koff (human IL-1beta [7]) [s⁻¹]	kon (human IL-1beta [7]) [M⁻¹ s⁻¹]	EC50, reduction of IL-6 expression upon IL-1beta stimulation of A549 cells (human IL-1beta [8]) [µg/mL]	Binder
0.3	0.23	0.11	0.06	0.00011	1.93e+06	0.05	0.000118	2.2e+06	0.83	0.05	0.000115	2.43e+06	101	–	–	–	–	huH34-2 (antibody, V domains shown, Humanized antibody expressed in HEK cells; also called huH34-2 bivalent; humanized version of H34) VH: QVQLVQSGAEVKKPGASVKVSCKASGYTFTGYYMHWVRQAPGQGLEWIGYISSYNAFTTYNQKFRGRATFTVDTSISTAYMELSRLRSDDTAVYYCVRSDYYGTSLYWGQGTLVTVSS VL: EIVLTQSPATLSLSPGERATLSCRASSSVSYMHWSQQKPGQAPRLLIYSTSNLASGIPARFSGSGSGTDFTLTISSLEPEDFAVYYCHQWSNYYTFGQGTKLEIK
–	–	–	–	–	–	–	–	–	–	–	–	–	–	0.06	0.000111	1.81e+06	–	huH34-2 Fab (Fab, V domains shown, also called huH34-2 Fab-fragment) VH: QVQLVQSGAEVKKPGASVKVSCKASGYTFTGYYMHWVRQAPGQGLEWIGYISSYNAFTTYNQKFRGRATFTVDTSISTAYMELSRLRSDDTAVYYCVRSDYYGTSLYWGQGTLVTVSS VL: EIVLTQSPATLSLSPGERATLSCRASSSVSYMHWSQQKPGQAPRLLIYSTSNLASGIPARFSGSGSGTDFTLTISSLEPEDFAVYYCHQWSNYYTFGQGTKLEIK

— patent publication US20170240629A1 (Hoffmann-La Roche, published 2017)
